Test results taken from US20110092681A1.
Where “and” joins values, the source holds several entries; their conditions need not be identical. Equal values may be shown once.

Target: rFVIII (recombinant Factor VIII) (UniProt P00451)
Assay: ELISA chromogenic assay (ECA): rFVIII incubated with rVWF, complex captured on anti-VWF antibody, bound FVIII read by chromogenic assay

FVIII binding (%): 51.7% and 64.6% and 63.1%
Substance: human recombinant VWF (rVWF) (from UniProt P04275 764-2813)
